Experimental findings from the supplement of paper PMC10126150 are described below.

This data set has as its system ATP. The data set is described as follows: switch fluorescence ratio, 500 uM ATP over buffer (Cy3 cluster intensity, sum of 5 cycles each) (fold (ratio)); higher = stronger signal-on switching upon ATP binding; sequences stand for … in TCGTCGGCAGCGTCAGATGTGTATAAGAGACAGTTTTTTTTTTTTTTTTTTTTTTTTT…TC. The conditions noted are these: aptamer strand: ATP DNA aptamer (quencher-CACCTGGGGGAGTATTGCGGAGGAAGG + anchor), 100 nM annealed; ATP concentration: 500 uM. The method, boiled down: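 Cy3-labelled switching-strand clusters on a modified Illumina MiSeq flow-cell were annealed to 100 nM quencher-labelled ATP aptamer, imaged in selection buffer, then imaged after 15 min with 500 uM ATP at 22 °C. Five buffer/ATP cycles ran, with NaOH stripping and re-annealing between them. The fluorescence ratio is summed target-cycle over summed buffer-cycle Cy3 intensity per cluster, averaged per switch-domain sequence. Clusters outside 100-1000 RFU were excluded.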

± gives the standard deviation of the averaged measurements.
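Also: ATP exposure 15 min at 22 °C before imaging.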

As for TTGGATTCGG, the switch fluorescence ratio came out at 0.972 ± 0.017.

Regarding TTGGATTTTG, the switch fluorescence ratio turned out to be 0.978 ± 0.043.

With TTGGCAGTG, the switch fluorescence ratio turned out to be 0.993 ± 0.019.

Regarding TTGGCATAAG, the switch fluorescence ratio turned out to be 1.16 ± 0.28.

Turning to TTGGCATGTT, the switch fluorescence ratio is 1.005 ± 0.0093.

With TTGGCCCGGC, the switch fluorescence ratio was 1.52 ± 0.72.

Regarding TTGGCCGTGT, the switch fluorescence ratio is 1.02 ± 0.028.

Regarding TTGGCCTTCC, the switch fluorescence ratio was determined as 2.19 ± 0.74.

As for TTGGCGACAT, the switch fluorescence ratio was 1.02 ± 0.021.

Take TTGGCGAGTT: the switch fluorescence ratio was determined as 1.007 ± 0.002.

As for TTGGCGGACG, the switch fluorescence ratio worked out at 0.984 ± 0.026.

For the sequence TTGGCGGAGT, the switch fluorescence ratio is 1.01 ± 0.032.

Take TTGGCGGCTA: the switch fluorescence ratio came to 0.982 ± 0.024.

TTGGCGTATC: the switch fluorescence ratio was 0.946 ± 0.041.

For TTGGCGTTCG, the switch fluorescence ratio came out at 1.01 ± 0.025.

In the case of TTGGCTGCGG, the switch fluorescence ratio was 0.95 ± 0.021.

TTGGCTGGTG: the switch fluorescence ratio was found to be 1.03 ± 0.04.

Turning to TTGGCTTAAA, the switch fluorescence ratio turned out to be 1.007 ± 0.0097.

TTGGCTTTGT: the switch fluorescence ratio is 0.985 ± 0.022.

Consider TTGGCTTTTA, for which the switch fluorescence ratio was found to be 0.99017 ± 0.00047.

For TTGGGAAAAA, the switch fluorescence ratio worked out at 1.14 ± 0.23.

For the sequence TTGGGAAAGA, the switch fluorescence ratio is 1.21 ± 0.34.

As to TTGGGAACGG, the switch fluorescence ratio came out at 1.03 ± 0.034.

With TTGGGAAGGA, the switch fluorescence ratio stood at 1.02 ± 0.042.

Take TTGGGACAAT: the switch fluorescence ratio was determined as 1.04 ± 0.044.

Take TTGGGACTTT: the switch fluorescence ratio was determined as 1.03 ± 0.022.

Regarding TTGGGAGAAG, the switch fluorescence ratio stood at 0.993 ± 0.051.

For the sequence TTGGGATGGG, the switch fluorescence ratio worked out at 0.998 ± 0.015.

Turning to TTGGGCAAAA, the switch fluorescence ratio came to 0.985 ± 0.065.

In the case of TTGGGCAGGA, the switch fluorescence ratio stood at 1.06 ± 0.047.

On to TTGGGCAGTG, for which the switch fluorescence ratio stood at 1.02 ± 0.045.

As for TTGGGCCAGG, the switch fluorescence ratio worked out at 1.14 ± 0.12.

In the case of TTGGGCCCTG, the switch fluorescence ratio was found to be 1.06 ± 0.014.

As to TTGGGCGAGG, the switch fluorescence ratio turned out to be 1.025 ± 0.0075.

Regarding TTGGGCTCTG, the switch fluorescence ratio is 0.988 ± 0.018.

With TTGGGCTTAT, the switch fluorescence ratio turned out to be 1.001 ± 0.0066.

As for TTGGGGAAAT, the switch fluorescence ratio was found to be 1.31 ± 0.68.

For the sequence TTGGGGAATG, the switch fluorescence ratio was 0.999 ± 0.049.

For the sequence TTGGGGAGTT, the switch fluorescence ratio is 1.01 ± 0.044.

For the sequence TTGGGGATCG, the switch fluorescence ratio is 0.983 ± 0.056.

In the case of TTGGGGCCAA, the switch fluorescence ratio is 1.01 ± 0.051.

For TTGGGGCCCT, the switch fluorescence ratio came out at 1.01 ± 0.029.

For the sequence TTGGGGCCGA, the switch fluorescence ratio worked out at 0.956 ± 0.017.

In the case of TTGGGGCGCG, the switch fluorescence ratio was 0.989 ± 0.051.

In the case of TTGGGGCTGA, the switch fluorescence ratio was 0.993 ± 0.037.

With TTGGGGGAGC, the switch fluorescence ratio was determined as 0.976 ± 0.018.

Regarding TTGGGGGCCA, the switch fluorescence ratio turned out to be 0.9898 ± 0.0041.

As to TTGGGGGCGG, the switch fluorescence ratio worked out at 1.01 ± 0.015.

For the sequence TTGGGGGCTC, the switch fluorescence ratio was determined as 0.998 ± 0.024.

On to TTGGGGGGAC, for which the switch fluorescence ratio worked out at 1.03 ± 0.029.

For TTGGGGGTT, the switch fluorescence ratio was 1.03 ± 0.017.

On to TTGGGGTAG, for which the switch fluorescence ratio amounted to 1.02 ± 0.033.

With TTGGGGTAGG, the switch fluorescence ratio was 1.01 ± 0.032.

As to TTGGGGTCCT, the switch fluorescence ratio is 0.984 ± 0.023.

For TTGGGGTTAG, the switch fluorescence ratio came out at 0.988 ± 0.017.

As for TTGGGGTTAT, the switch fluorescence ratio amounted to 0.975 ± 0.032.

With TTGGGGTTGC, the switch fluorescence ratio amounted to 1.01 ± 0.034.

As to TTGGGTAAGA, the switch fluorescence ratio amounted to 1.02 ± 0.028.

Take TTGGGTATTA: the switch fluorescence ratio is 0.9656 ± 0.0024.

Consider TTGGGTATTT, for which the switch fluorescence ratio came out at 0.986 ± 0.021.

Turning to TTGGGTCCGA, the switch fluorescence ratio worked out at 1.01 ± 0.049.

TTGGGTGAAG: the switch fluorescence ratio was 1.01 ± 0.025.

Consider TTGGGTGCGG, for which the switch fluorescence ratio was determined as 1 ± 0.066.

In the case of TTGGGTGGAG, the switch fluorescence ratio turned out to be 0.991 ± 0.023.

Regarding TTGGGTGGGT, the switch fluorescence ratio turned out to be 1 ± 0.038.

For TTGGGTGGTA, the switch fluorescence ratio worked out at 0.988 ± 0.028.

As to TTGGGTGTAG, the switch fluorescence ratio was determined as 1.04 ± 0.025.

As to TTGGGTTTCT, the switch fluorescence ratio turned out to be 0.97996 ± 0.00043.

For the sequence TTGGGTTTG, the switch fluorescence ratio came out at 0.964 ± 0.011.

Consider TTGGGTTTTT, for which the switch fluorescence ratio turned out to be 1.04 ± 0.1.

Take TTGGTAATAG: the switch fluorescence ratio is 1.03 ± 0.015.

Consider TTGGTAATGT, for which the switch fluorescence ratio amounted to 1.03 ± 0.016.

Regarding TTGGTACTTA, the switch fluorescence ratio was determined as 0.995 ± 0.013.

Regarding TTGGTACTTT, the switch fluorescence ratio was found to be 0.9841 ± 0.0051.

As for TTGGTAGCTA, the switch fluorescence ratio worked out at 0.9889 ± 0.0098.

In the case of TTGGTAGGGC, the switch fluorescence ratio worked out at 0.97013 ± 0.0006.

TTGGTAGGGG: the switch fluorescence ratio came to 1.03 ± 0.077.

Take TTGGTAGTCA: the switch fluorescence ratio amounted to 0.992 ± 0.037.

Consider TTGGTATAGT, for which the switch fluorescence ratio is 0.9999 ± 0.0047.

Consider TTGGTATGGG, for which the switch fluorescence ratio came to 1.03 ± 0.044.

For the sequence TTGGTCAAAA, the switch fluorescence ratio came out at 1.022 ± 0.0089.

With TTGGTCCGGT, the switch fluorescence ratio worked out at 0.988 ± 0.018.

For TTGGTCCGTC, the switch fluorescence ratio stood at 1.01 ± 0.047.

For the sequence TTGGTCGGGG, the switch fluorescence ratio turned out to be 0.991 ± 0.023.

Turning to TTGGTCGGTC, the switch fluorescence ratio turned out to be 0.985 ± 0.036.

Turning to TTGGTCTAGA, the switch fluorescence ratio came out at 1.01 ± 0.054.

With TTGGTCTTGT, the switch fluorescence ratio was 1.001 ± 0.006.

Take TTGGTGAAGG: the switch fluorescence ratio is 1.01 ± 0.023.

For TTGGTGAGTT, the switch fluorescence ratio came out at 0.981 ± 0.029.

Regarding TTGGTGCCCG, the switch fluorescence ratio came to 1.01 ± 0.037.

As to TTGGTGGATC, the switch fluorescence ratio is 1.03 ± 0.03.

Take TTGGTGGTTT: the switch fluorescence ratio is 0.988 ± 0.027.

For the sequence TTGGTGTACT, the switch fluorescence ratio was 1.01 ± 0.019.

As to TTGGTGTGTC, the switch fluorescence ratio turned out to be 1.04 ± 0.07.

As to TTGGTGTTGT, the switch fluorescence ratio was determined as 0.989 ± 0.027.

With TTGGTGTTTT, the switch fluorescence ratio was 1.02 ± 0.03.

With TTGGTTACTG, the switch fluorescence ratio was found to be 1.03 ± 0.07.

As to TTGGTTATGC, the switch fluorescence ratio was 0.998 ± 0.045.

Regarding TTGGTTATGT, the switch fluorescence ratio came to 0.969 ± 0.017.

Turning to TTGGTTGAAC, the switch fluorescence ratio turned out to be 0.946 ± 0.032.

Consider TTGGTTGGAG, for which the switch fluorescence ratio was 0.996 ± 0.021.

Regarding TTGGTTGTAT, the switch fluorescence ratio is 1 ± 0.011.

TTGGTTGTGG: the switch fluorescence ratio worked out at 0.972 ± 0.018.

On to TTGGTTGTGT, for which the switch fluorescence ratio stood at 1.01 ± 0.015.

TTGGTTTCTT: the switch fluorescence ratio is 1.01 ± 0.023.

Turning to TTGGTTTGCG, the switch fluorescence ratio stood at 0.962 ± 0.017.

Turning to TTGGTTTGGG, the switch fluorescence ratio came out at 0.98 ± 0.022.

On to TTGGTTTGTG, for which the switch fluorescence ratio came out at 1.01 ± 0.035.

With TTGGTTTTAG, the switch fluorescence ratio stood at 1 ± 0.033.

Regarding TTGGTTTTGA, the switch fluorescence ratio amounted to 0.988 ± 0.042.

As to TTGTAAAA, the switch fluorescence ratio is 0.95579 ± 0.00088.

For TTGTAAGGTC, the switch fluorescence ratio stood at 1 ± 0.031.

As for TTGTAAGTGG, the switch fluorescence ratio stood at 0.97 ± 0.0078.

Consider TTGTAATAGT, for which the switch fluorescence ratio came out at 1.026 ± 0.00026.

On to TTGTACAA, for which the switch fluorescence ratio was 0.993 ± 0.017.

On to TTGTAGAGGG, for which the switch fluorescence ratio worked out at 1.01 ± 0.029.

Turning to TTGTATAATT, the switch fluorescence ratio was found to be 0.969 ± 0.038.

Take TTGTATAGGG: the switch fluorescence ratio came out at 1 ± 0.025.

On to TTGTATCAGG, for which the switch fluorescence ratio turned out to be 1 ± 0.02.

With TTGTATCTTC, the switch fluorescence ratio is 0.993 ± 0.041.
